Changes are numbered by the printed parent chain. “Also recorded” adds a separate entry of the source.

The subject of experiment [1] is hCLDN-5. As to the kind of experiment: Epitope analysis by hCLDN-5/hCLDN-1 chimeric CLDN (FACS), loop assignment. The experiment is classed as binding, human. Particulars: antibody concentration 5 μg/mL, hCLDN-5/hCLDN-1 chimeras.
Experiment [2] concerns the target T1, 1-1-5 (Homo sapiens, UniProt O00501, A34S/A72N/D37G/E76T/F35Y/G26A/H38D/H61Q/K48E/L36A/M29Q/M62I/Q31R/T33Y/T45A/T46M/T75S/V32I/V56S/V70L/W47Y/Y67F).
T1 construct: expressed in transfected cells; host or cells: retrovirus-infected cells (pCX4pur)
T1 sequence (O00501 1-218 G26A/M29Q/Q31R/V32I/T33Y/A34S/F35Y/L36A/D37G/H38D/T45A/T46M/W47Y/K48E/V56S/H61Q/M62I/Y67F/V70L/A72N/T75S/E76T): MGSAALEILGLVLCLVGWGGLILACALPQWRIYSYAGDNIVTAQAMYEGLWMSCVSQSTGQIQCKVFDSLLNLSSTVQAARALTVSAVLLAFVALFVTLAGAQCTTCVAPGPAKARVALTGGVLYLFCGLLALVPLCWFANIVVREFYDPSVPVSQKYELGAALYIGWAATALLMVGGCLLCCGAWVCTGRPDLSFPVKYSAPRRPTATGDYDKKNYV
Description: Epitope analysis FACS, chimeric protein 1-1-5. Particulars: antibody concentration 5 μg/mL; first extracellular loop substituted with hCLDN-1. The experiment is classed as binding.

Experiment [3] deals with T2, 5-5-1 (Homo sapiens, UniProt O00501, A162Q/K157R/L160F/Q156A/S151M/S155N/V152T).
T2 construct: expressed in transfected cells; host or cells: retrovirus-infected cells (pCX4pur)
T2 sequence (O00501 1-218 S151M/V152T/S155N/Q156A/K157R/L160F/A162Q): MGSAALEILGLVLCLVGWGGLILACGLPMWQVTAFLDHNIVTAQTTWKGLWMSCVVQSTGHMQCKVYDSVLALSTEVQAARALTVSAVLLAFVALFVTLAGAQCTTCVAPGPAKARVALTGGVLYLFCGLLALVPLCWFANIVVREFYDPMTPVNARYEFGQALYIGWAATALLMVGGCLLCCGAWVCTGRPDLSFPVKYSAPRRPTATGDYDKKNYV
As to the kind of experiment: Epitope analysis FACS, chimeric protein 5-5-1. The experiment is classed as binding. The note with it: antibody concentration 5 μg/mL; second extracellular loop substituted with hCLDN-1.

The test system of experiment [4] is hCLDN-5. As to the kind of experiment: Epitope analysis by hCLDN-5/mCLDN-5 chimeric CLDN (D68E, T75A, S151T, TM; FACS). The note with it: antibody concentration 5 μg/mL, mutants D68E. The experiment is classed as binding, human.
In experiment [5] the target is T3, hCLDN-5 (Homo sapiens, UniProt O00501).
T3 construct: expressed in transfected cells; host or cells: HT-1080 human fibrosarcoma cells infected with a pCX4pur-derived retrovirus (HT-1080/hCLDN-5)
T3 sequence (O00501 1-218): T2 sequence (O00501 1-218 S151M/V152T/S155N/Q156A/K157R/L160F/A162Q) with M151S, T152V, N155S, A156Q, R157K, F160L, Q162A
Description: Western blotting operability, HT-1080/hCLDN-5 lysate. The experiment is classed as binding. The note with it: SDS-PAGE under reducing condition, antibody concentration 10 μg/mL, FIG. 5. The protocol: FIG. 5 illustrates western blotting images showing the CLDN-5 primary structure recognizability of the anti-CLDN-5 antibodies obtained in Example 3-6). The primary antibodies used are shown at the top of the images, and the used cells are shown under the primary antibodies. The names of proteins represented by bands are shown on the left side of the images.
Cell lysates were prepared from HT-1080/mock and HT-1080/hCLDN-5 obtained in Example 1-2), and the lysates were separated by SDS-PAGE under a reducing condition. By using the antibodies (antibody concentration: 10 μg/mL) obtained in Example 1 as primary antibodies, western blotting was performed according to the conventional method. As primary antibodies, commercial monoclonal antibodies (4C3C2, Invitrogen, 35-2500) recognizing the C-terminal of CLDN-5 were used as positive control, and β actin antibodies (Sigma Aldrich, A1978) were used as loading control. The results are illustrated in FIG. 5.

Experiment [6] addresses T4, mCLDN-5 (Mus musculus, UniProt O54942).
T4 construct: expressed in transfected cells; host or cells: retrovirus-infected cells
T4 sequence (O54942 1-218): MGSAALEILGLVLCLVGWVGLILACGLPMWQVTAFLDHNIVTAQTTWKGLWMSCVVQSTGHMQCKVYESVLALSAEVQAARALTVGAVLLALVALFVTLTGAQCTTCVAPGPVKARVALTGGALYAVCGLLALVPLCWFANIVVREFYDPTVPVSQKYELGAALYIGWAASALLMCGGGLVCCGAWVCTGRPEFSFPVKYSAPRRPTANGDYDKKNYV
Description: Evaluation of CLDN specificity by FACS, mCLDN-5-expressing cells. The experiment is classed as binding. Particulars: hybridoma culture supernatant as primary antibody, FIG. 1B.

For experiment [7], the system named is MDCKII/hCLDN-5. Description: TEER of CLDN-5 compulsory expression system, MDCKII/hCLDN-5. The experiment is classed as cell-based, human. The note with it: MDCKII/hCLDN-5, FIG. 7B.
For experiment [8], the system named is blood-brain barrier simulation system. Description: Material permeability of blood-brain barrier simulation system (monkey BBB kit). The experiment is classed as cell-based. Particulars: 12 hours after addition, FIG. 13.
Experiment [9] has as its system ZO-1. Description: ZO-1 localization by immunostaining in blood-brain barrier simulation system. The note with it: monkey BBB kit, 12 hours after addition, FIG. 14. The experiment is classed as cell-based.
The subject of experiment [10] is CLDN-5. Description: CLDN-5 localization by immunostaining in blood-brain barrier simulation system. The experiment is classed as cell-based. The note with it: monkey BBB kit, 12 hours after addition, FIG. 14.
Experiment [11] has as its target T5, 1-5-5 (Homo sapiens, UniProt O00501, A34S/D37G/F35Y/G26A/H38D/K48E/L36A/M29Q/Q31R/T33Y/T45A/T46M/V32I/W47Y).
T5 construct: expressed in transfected cells; host or cells: retrovirus-infected cells (pCX4pur)
T5 sequence (O00501 1-218 G26A/M29Q/Q31R/V32I/T33Y/A34S/F35Y/L36A/D37G/H38D/T45A/T46M/W47Y/K48E): T1 sequence (O00501 1-218 G26A/M29Q/Q31R/V32I/T33Y/A34S/F35Y/L36A/D37G/H38D/T45A/T46M/W47Y/K48E/V56S/H61Q/M62I/Y67F/V70L/A72N/T75S/E76T) with S56V, Q61H, I62M, F67Y, L70V, N72A, S75T, T76E
Description: Epitope analysis FACS, chimeric protein 1-5-5. The experiment is classed as binding. Particulars: antibody concentration 5 μg/mL; N-terminal half of first extracellular loop substituted with hCLDN-1.

B1: R14: rat anti-CLDN-5 monoclonal antibody, IgG2a/K; VH SEQ ID NO: 21, VL SEQ ID NO: 22; example of antibody K (antibody, V domains shown)
VH: QVTLKESGPGILQPSHTLSLTCSFSGFSLSTYGMGVSWIRQPSGKGLEWLASIWWNGRTYTNPSLMSRLTVSKDTSTNQAFLRVTSVETADTATYYCAHTPYDYSNLGWFTYWGQGTLVTVSS
VL: DILMTQTPSSQAVSAGEKVTVSCKSSQSLLYSGDQKSYLAWYQQKPGQSPKLLIYLASTRKSGVPDRFIGSGSGTDFTLTISSVQAEDLADYYCQQHYTYPLTFGSGTKLEI
modifications: R14 VH; R14 VL
Consider B1, for which the “extracellular loop of CLDN-5 recognized” value in experiment [1] is listed as “second extracellular loop”. The “recognition of 1-1-5” value in experiment [2] is recorded as “capable of recognizing”. Further, the “recognition of 5-5-1” value in experiment [3] is reported as “incapable of recognizing”. Further, the “portion of hCLDN-5 recognized” value in [4] was “three-dimensional structure created by the transmembrane domain of hCLDN-5; also recorded: domain around the 151st amino acid from the N-terminal present in the second extracellular loop”. In [5], the “recognition of linear peptide (western blotting operability)” value is “weakly recognized”.

B2: R3: rat anti-CLDN-5 monoclonal antibody, IgG2a/K; VH SEQ ID NO: 13, VL SEQ ID NO: 14; example of antibody G (antibody, V domains shown)
VH: EVQLVESGGGLVQPGRSLKLSCAASGFTFSDYYMAWVRQAPKKGLEWVASISYEGRNTYYGDSVKGRFTISRDNAKSTLYLQMKSLRSEDTATYYCTRHPRRYFDYWGQGVMVTVSS
VL: DIVMTQSPSSLAVSAGETVTMNCRSSQSLFSSGDQKKFLAWYQQKPGQSPKLLISLASTRESGVPDRFIGSGSGTDFTLTINNMQAEDLAIYYCQQHYDIPYTFGAGTKLEL
modifications: R3 VH; R3 VL
Turning to B2, in experiment [1], the “extracellular loop of CLDN-5 recognized” value is reported as “second extracellular loop”. In [2], the “recognition of 1-1-5” value is given as “capable of recognizing”. Also, in experiment [3], the “recognition of 5-5-1” value is on record as “incapable of recognizing”. Further, the “portion of hCLDN-5 recognized” value in [4] was “domain around the 151st amino acid from the N-terminal present in the second extracellular loop”.

B3: M23: mouse anti-CLDN-5 monoclonal antibody, IgG2b/K; VH SEQ ID NO: 5, VL SEQ ID NO: 6; example of antibody C (antibody, V domains shown)
VH: EVQLQQSGPVLVKPGPSVMISCKASGFTFTDYYMHWVKQSHGKSLEWIGLVYPYNGGTDYNQKFKGKATLTVDTSSSTAYMELNSLTSEDSAVYYCARCLYDGLYFYAMDYWGQGTSVTVSS
VL: DIVMSQSPSSLAVSAGEKVTMTCKSSQSLLNSRARKNYLAWYQQKAGQSPKLLMYWASTRESGVPDRFTASGSGTDFTLTISSVQAEDLAVFYCKQSYNLPWTFGGGTKLEIKR
modifications: M23 VH; M23 VL
In the case of B3, the “extracellular loop of CLDN-5 recognized” value in [1] is listed as “second extracellular loop”. Besides, the “recognition of 1-1-5” value in experiment [2] was “capable of recognizing”. Besides, in experiment [3], the “recognition of 5-5-1” value is “incapable of recognizing”. The “portion of hCLDN-5 recognized” value in experiment [4] is “domain around the 151st amino acid from the N-terminal present in the second extracellular loop”.

B4: M48: mouse anti-CLDN-5 monoclonal antibody, IgG3/K; VH SEQ ID NO: 9, VL SEQ ID NO: 10; example of antibody E (antibody, V domains shown)
VH: QAYLQQSGAELVRPGASVKMSCKASGYTFTSYNMHWVKKTRRQGLEWIGAISPGNGNTSYNQKFKGKATLTVDKSSSTAYMQLSSLTSEDSAVYFCARDDGYYGALDYWGQGTSVTVSS
VL: DIVLTQSPATLSVTPGESVSLSCRASQGISTSIHWYQQKSNESPRLLIRYASQSISRIPSRFSGSGSGTDFTLTINGVESEDLSVYYCQQSYNLPLTFGSGTKLEI
modifications: M48 VH; M48 VL
Take B4: the “binding capacity to mCLDN-5” value in experiment [6] is listed as “extremely low”. The “extracellular loop of CLDN-5 recognized” value in [1] is given as “second extracellular loop”. The “recognition of 1-1-5” value in experiment [2] was “capable of recognizing”. The “recognition of 5-5-1” value in experiment [3] is “incapable of recognizing”. In addition, the “portion of hCLDN-5 recognized” value in [4] is “domain around the 151st amino acid from the N-terminal present in the second extracellular loop”. Moreover, the “reduction in TEER” value in experiment [7] is given as “greatly reducing TEER”. Further, the “4 kDa FITC-dextran permeability of the blood-brain barrier simulation system” value in experiment [8] is on record as “exhibited an activity of improving”. Also, the “localization properties of ZO-1” value in experiment [9] is “did not change”. In addition, the “localization properties of CLDN-5 in the intercellular space” value in experiment [10] is listed as “reduced”.

B5: R2: rat anti-CLDN-5 monoclonal antibody, IgG2a/K; VH SEQ ID NO: 11, VL SEQ ID NO: 12; example of antibody F (antibody, V domains shown)
VH: QVQLKESGPGLVQPSQTLSLTCTVSGLSLIRNSVSWIRQPPGKGLEWMGVIWSNGGTEYNSTVKSRLSISRDTSKNQVFLKMNSLQTEDSAMFFCARTPDGYYPYFDYWGQGVMVTVSS
VL: B4 VL
modifications: R2 VH; R2 VL
For B5, in [1], the “extracellular loop of CLDN-5 recognized” value is on record as “first extracellular loop”. Besides, in experiment [2], the “recognition of 1-1-5” value is given as “incapable of recognizing”. Moreover, in experiment [3], the “recognition of 5-5-1” value was “capable of recognizing”. In addition, in [11], the “recognition of 1-5-5” value is “capable of recognizing”. For the same molecule, the “portion of hCLDN-5 recognized” value in [4] is on record as “domain around the 68th amino acid from the N-terminal present in the first extracellular loop”.

B6: M11: mouse anti-CLDN-5 monoclonal antibody, IgG2b/K; VH SEQ ID NO: 3, VL SEQ ID NO: 4; example of antibody B (antibody, V domains shown)
VH: QVQLKQSGPGLVQPSQSLSITCTVSGFSLIRYGVHWVRQSPGKGLEWLGVKWSGGSTDYNGAFKSRLSISKDNSKSQVFFKMNSLQADDTAIYYCARGLDGYYVPDVWGTGTSVTVS
VL: DIVMTQSHKFMSTSVGDRVSITCKASQDVSTNVAWYQQKPGQSPTLLIYWASTRHTGVPDRFTGSGSGTDYTLTISSVQAEDLALYYCQQHYSTPLTFGAGTKLELRR
modifications: M11 VH; M11 VL
As to B6, the “extracellular loop of CLDN-5 recognized” value in [1] was “first extracellular loop”. Further, in experiment [2], the “recognition of 1-1-5” value was “incapable of recognizing”. Moreover, the “recognition of 5-5-1” value in experiment [3] is given as “capable of recognizing”. For the same molecule, the “recognition of 1-5-5” value in experiment [11] is listed as “incapable of recognizing”. The “portion of hCLDN-5 recognized” value in experiment [4] is “domain around the 68th amino acid from the N-terminal present in the first extracellular loop”.

The values are drawn from patent publication US11053313B2, “Anti-CLDN-5 antibody, and drug containing said antibody” (OSAKA UNIVERSITY, priority 2017, dated 2021).
